The numbers were not newly measured in paper doi:10.1101/2025.11.26.690829, which cites them from elsewhere.

This data set has as its target TDP-43 NTD (Homo sapiens) (UniProt Q13148).

In the case of TDP-43 NTD (from UniProt Q13148), the equilibrium dissociation constant (Kd) was 2 µM.
